This passage reports Kd results from patent US20240116997A1.

The term Kd denotes a measure of binding affinity in units of concentration. A low value points to higher affinity.

IL-18 WT (native sequence, SEQ ID NO: 1), sequence (Q14116 37-193): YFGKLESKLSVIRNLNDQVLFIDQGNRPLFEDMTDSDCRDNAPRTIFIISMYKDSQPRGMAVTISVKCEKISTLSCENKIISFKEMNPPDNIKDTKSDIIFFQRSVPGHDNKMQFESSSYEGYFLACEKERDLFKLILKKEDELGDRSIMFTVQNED

For this experiment, the target named is His-tagged human IL-18BP (human) (UniProt O95998). The experiment can be described thus: AlphaLISA of free IL-18BP after incubation with IL-18 dilutions. In general terms: Bead proximity is the source of the signal in Alpha formats.
His-tagged human IL-18BP (human), sequence (O95998 31-194): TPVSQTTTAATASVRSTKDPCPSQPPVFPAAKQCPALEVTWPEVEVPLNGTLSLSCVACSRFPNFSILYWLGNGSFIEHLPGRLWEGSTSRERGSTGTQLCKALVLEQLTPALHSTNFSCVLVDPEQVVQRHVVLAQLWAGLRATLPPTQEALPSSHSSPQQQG
In the case of “C142 (Y1M, E6K, V11I, C38A, K53A, T63A, C76A, C127A) (from UniProt Q14116 38-193) (ligand)”, the equilibrium dissociation constant (Kd) was 2.25 nM.

“C143 (V11I, C38A, K53A, C76A, C127A) (from UniProt Q14116 37-193) (ligand)”: the Kd is 8.86 nM.

“C144 (V11I, C38A, K53A, T63A, C76A, C127A) (from UniProt Q14116 37-193) (ligand)” registered a Kd of 0.66 nM.

On to “C145 (V11I, C38A, K53A, S55A, C76A, C127A) (from UniProt Q14116 37-193) (ligand)”, for which the dissociation constant Kd was found to be 9.74 nM.

“C146 (SEQ ID NO: 79; V11I, C38A, M51G, K53A, C76A, C127A) (from UniProt Q14116 37-193) (ligand)” yielded a Kd of 373 nM.

As for “C147 (V11I, C38A, K53A, D54A, C76A, C127A) (from UniProt Q14116 37-193) (ligand)”, the Kd turned out to be 25.8 nM.

The substance “C148 (F2A, V11I, C38A, K53A, C76A, C127A) (from UniProt Q14116 37-193) (ligand)” gave a Kd of 57.2 nM.

“C149 (V11I, E31A, C38A, K53A, C76A, C127A) (from UniProt Q14116 37-193) (ligand)” returned a Kd of 0.64 nM.

In turn, “C150 (V11I, T34A, C38A, K53A, C76A, C127A) (from UniProt Q14116 37-193) (ligand)” yielded a Kd of 1.24 nM.

“C151 (V11I, D35A, C38A, K53A, C76A, C127A) (from UniProt Q14116 37-193) (ligand)” registered a Kd of 2.88 nM.

Substance “C152 (V11I, S36A, C38A, K53A, C76A, C127A) (from UniProt Q14116 37-193) (ligand)” came in with a Kd of 1.12 nM.

“C153 (V11I, D37A, C38A, K53A, C76A, C127A) (from UniProt Q14116 37-193) (ligand)” displayed a dissociation constant (Kd) of 4.55 nM.

Take “C154 (V11I, E31A, D37A, C38A, K53A, C76A, C127A) (from UniProt Q14116 37-193) (ligand)”: the equilibrium dissociation constant (Kd) worked out at 2.12 nM.

Regarding “C155 (V11I, C38A, D40A, K53A, C76A, C127A) (from UniProt Q14116 37-193) (ligand)”, the dissociation constant (Kd) is 0.74 nM.

“C156 (V11I, C38A, N41A, K53A, C76A, C127A) (from UniProt Q14116 37-193) (ligand)” displayed a dissociation constant (Kd) of 18.5 nM. Against the preceding substance, the Kd is about 25-fold higher.

“C157 (V11I, C38A, K53A, C76A, C127A, D132A) (from UniProt Q14116 37-193) (ligand)”: the Kd worked out at 13.7 nM.

The substance “C158 (V11I, C38A, K53A, C76A, G108A, C127A) (from UniProt Q14116 37-193) (ligand)” had a Kd of 1.24 nM.

As to “C159 (V11I, C38A, K53A, C76A, H109A, C127A) (from UniProt Q14116 37-193) (ligand)”, the equilibrium dissociation constant (Kd) is 0.55 nM. Compared with the last substance, the Kd is about 2.3-fold lower.

“C160 (V11I, C38A, K53A, C76A, D110A, C127A) (from UniProt Q14116 37-193) (ligand)”: the Kd is 0.71 nM. This Kd and that of the substance before are within 1.5-fold of each other.

For “C161 (K8R, V11I, C38A, C76A, Q103E, C127A) (from UniProt Q14116 37-193) (ligand)”, the Kd was 0.06 nM. This Kd is about 12-fold lower than that of the substance before.

“C162 (K8E, V11I, C38A, C76A, Q103R, C127A) (from UniProt Q14116 37-193) (ligand)” returned a Kd of 0.85 nM.

“C163 (V11I, C38A, C76A, Q103K, C127A) (from UniProt Q14116 37-193) (ligand)”: the dissociation constant (Kd) was determined as 0.05 nM.

In turn, “C164 (V11I, C38A, S55H, C76A, C127A) (from UniProt Q14116 37-193) (ligand)” displayed a dissociation constant (Kd) of 0.08 nM.

In turn, “C165 (V11I, C38A, S55R, C76A, C127A) (from UniProt Q14116 37-193) (ligand)” showed a Kd of 0.15 nM.

“C166 (V11I, C38A, S55T, C76A, C127A) (from UniProt Q14116 37-193) (ligand)” yielded a Kd of 0.02 nM.

The substance “C167 (V11I, C38A, C76A, S105I, C127A) (from UniProt Q14116 37-193) (ligand)” gave an equilibrium dissociation constant (Kd) of 0.04 nM.

Substance “C168 (V11I, C38A, C76A, S105K, C127A) (from UniProt Q14116 37-193) (ligand)” showed a dissociation constant (Kd) of 0.05 nM. This Kd and that of the substance before are within 1.5-fold of each other.

Substance “C174 (K8L, E6K, V11I, C38A, K53A, T63A, C76A, C127A) (from UniProt Q14116 37-193) (ligand)” gave a Kd of 0.14 nM.

Substance “C176 (E6K, V11I, C38A, I49M, K53A, T63A, C76A, C127A) (from UniProt Q14116 37-193) (ligand)” had a Kd of 25.8 nM. This Kd is about 180-fold higher than that of the substance before.

Substance “C184 (E6R, V11I, C38A, K53A, T63A, C76A, C127A) (from UniProt Q14116 37-193) (ligand)” had an equilibrium dissociation constant (Kd) of 5.46 nM.

In the case of “IL-18 WT (native sequence, SEQ ID NO: 1) (from UniProt Q14116 37-193) (ligand)”, the Kd was 0.67 nM.

In turn, “IL-18 polypeptide SEQ ID NO: 35 (Y01G, F02A, E06K, M51G, K53A, D54A, S55A, T63A) (from UniProt Q14116 37-193) (ligand)” had a Kd of 969 nM.

As to “IL-18 polypeptide SEQ ID NO: 36 (K53A) (from UniProt Q14116 37-193) (ligand)”, the dissociation constant Kd is 514 nM.

Turning to “IL-18 polypeptide SEQ ID NO: 37 (S55A) (from UniProt Q14116 37-193) (ligand)”, the Kd stood at 10.7 nM.

The substance “IL-18 polypeptide SEQ ID NO: 38 (E06K) (from UniProt Q14116 37-193) (ligand)” came in with a dissociation constant (Kd) of 0.13 nM.

In the case of “IL-18 polypeptide SEQ ID NO: 39 (E06K, K53A) (from UniProt Q14116 37-193) (ligand)”, the Kd worked out at 130 nM.

In the case of “IL-18 polypeptide SEQ ID NO: 40 (E06K, S55A) (from UniProt Q14116 37-193) (ligand)”, the dissociation constant (Kd) is 12.3 nM.

In turn, “IL-18 polypeptide SEQ ID NO: 41 (K53A, S55A) (from UniProt Q14116 37-193) (ligand)” came in with a dissociation constant Kd of 500 nM.

Consider “IL-18 polypeptide SEQ ID NO: 42 (E06K, K53A, S55A, T63A) (from UniProt Q14116 37-193) (ligand)”, for which the Kd is 822 nM.

Take “IL-18 polypeptide SEQ ID NO: 47 (C38S, C68S, C76S, C127S) (from UniProt Q14116 37-193) (ligand)”: the equilibrium dissociation constant (Kd) was found to be 0.03 nM.

“IL-18 polypeptide SEQ ID NO: 48 (C38S, C68S, C76S, C127S, K70C) (from UniProt Q14116 37-193) (ligand)” yielded a Kd of 0.21 nM.

The substance “IL-18 polypeptide SEQ ID NO: 50 (E06K, K53A, T63A) (from UniProt Q14116 37-193) (ligand)” showed a Kd of 340 nM.

With “IL-18 polypeptide SEQ ID NO: 51 (T63A) (from UniProt Q14116 37-193) (ligand)”, the Kd turned out to be 2.59 nM.

For “IL-18 polypeptide SEQ ID NO: 52 (E06K, T63A) (from UniProt Q14116 37-193) (ligand)”, the Kd was 0.83 nM.

“IL-18 polypeptide SEQ ID NO: 53 (K53A, T63A) (from UniProt Q14116 37-193) (ligand)” displayed a Kd of 198 nM.

“IL-18 polypeptide SEQ ID NO: 54 (E06K, K53A, C38S, C68S, C76S, C127S, K70C) (from UniProt Q14116 37-193) (ligand)” had a Kd of 446 nM.

Consider “IL-18 polypeptide SEQ ID NO: 55 (K53A, T63A, C38S, C68S, C76S, C127S, K70C) (from UniProt Q14116 37-193) (ligand)”, for which the Kd came out at 913 nM.

Regarding “IL-18 polypeptide SEQ ID NO: 56 (E6K, K53A, C38S, C76S, C127S) (from UniProt Q14116 37-193) (ligand)”, the Kd was 436 nM.

“IL-18 polypeptide SEQ ID NO: 57 (E6K, C38S, K53A) (from UniProt Q14116 37-193) (ligand)” displayed a Kd of 50.2 nM.
